Measurements taken from article PMC12450071 (Cell reports, 2025).

Biological target: JUNV GP1 (receptor-binding domain), subunit within the GPC on PV membranes (Junin mammarenavirus, strain MC2 …, UniProt P26313)
Test: cryo-EM structure
Settings: one partner purified

Chain of JUNV GP1 (receptor-binding domain), subunit within the GPC on PV membranes (P26313 whole entry, looked up, the tested form may be a part): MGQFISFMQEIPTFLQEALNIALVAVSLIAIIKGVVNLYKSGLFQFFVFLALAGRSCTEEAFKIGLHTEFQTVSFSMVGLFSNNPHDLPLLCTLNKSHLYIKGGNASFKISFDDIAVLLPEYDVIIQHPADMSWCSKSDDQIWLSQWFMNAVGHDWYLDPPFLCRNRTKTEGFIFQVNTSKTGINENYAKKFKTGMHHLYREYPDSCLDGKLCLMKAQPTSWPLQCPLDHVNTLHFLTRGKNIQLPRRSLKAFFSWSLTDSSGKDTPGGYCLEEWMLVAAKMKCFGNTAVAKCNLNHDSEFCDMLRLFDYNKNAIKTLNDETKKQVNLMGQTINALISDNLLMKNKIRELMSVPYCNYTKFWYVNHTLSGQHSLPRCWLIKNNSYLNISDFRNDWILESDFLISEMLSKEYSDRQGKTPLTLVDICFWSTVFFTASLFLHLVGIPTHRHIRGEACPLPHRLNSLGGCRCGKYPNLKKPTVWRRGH

B1: GFP-fused Fab of the neutralizing antibody CR1-28 (Fab, V domains shown)
VH: QVQLVESGGGVVQPGRSLRLSCAASGFTFSSSAMHWVRQAPGKGLEWVAVIWSDGSNENYADSVKGRFTISRDNSKNTLYLQMSSLRAEDTAVYYCATDKTYVSGYTSTWYYFNYWGQGTLVTVSG
VL: DIQMTQSPSTLSASVGDRVTITCRASQSIDNWLAWYQQKPGKAPKLLIYTASRLESGVPSRFSGSGSGTEFTLTISSLQPDDFATYYCQHRTFGQGTKVEIK
notes: also called CR1–28Fab; GFP-fused CR1–28Fab; source: HEK293T, transfected, purified from culture media (Ni-NTA)
B1: binds.

B2: GB03-BE08 (J199) Fab (Fab, V domains shown)
VH: VALVESGGGLVQPGGSLKLSCASGASFSNAGMSWVRQTPDRRLELVAAINRDGDITYHPDSVKGRFTISRDNAKNTLYLQMSSLKSEDTAMYYCAREDYYGLYFYVMDYWGQGTSVTVA
VL: QIVLTQSPAIMSASPGEKVTITCSASSIVSYMHWFQQKPGTSPKLWIYGTSNLASGVPARFSGSGSGTSYSLTISRMEAEDAATYYCQQRNSYPPTFGGGTKLEIK
notes: source: bought: BEI Resources (J199), ficin digested, dialyzed into TBS pH 8
B2: binds.
